# Test results: patent US6492344B1, “Syndecan enhancer element and syndecan stimulation of cellular differentiation” (Biotie Therapies Corp., priority 1993, dated 2002)
# “Also recorded” adds a separate entry of the source.
# Columns and labels:
# [1] = tested on: FGF-inducible Response Element (FiRE); test: pFiRE CAT reporter activation by growth factors in 3T3NIH cells; assay type: cell-based, mouse; settings: pFiRE transfected 3T3NIH cells; 10 ng/ml growth factor (2 ng/ml TGF-β) or 5% FCS, 2 days
# Protocol: Each of these plasmids was transiently transfected into 3T3NIH cells, using the calcium phosphate precipitation method (Chen and Okayama, Mol. Cell Biol. 7:2745-2752 (1987)) as follows. For transient transfections NIH3T3 cells were plated at equal density on six-well plates (Falcon) two days before transfection. Plasmid DNA was transfected into cells by calcium phosphate method (Chen and Okayama, Mol. Cell Biol. 7:2745-2752 (1987)). A β-galactosidase expressing plasmid (pSV-β-galactosidase, Promega) was co-transfected with CAT constructs to monitor transfection efficiencies. Three parallel transfections were used in every assay. […] CAT activities were measured by liquid scintillation and β-galactosidase activities spectrophotometrically at 420 nm as described by Vihinen et al., J. Biol. Chem 268:17261-17269 (1993)). […]
# For the gene expression analysis the fragments of the syndecan-1 upstream region were subcloned from mouse genomic clones into the XbaI site of the pCATProm vector in which a mouse syndecan-1 promoter region (−1310 to +140) was fused to the CAT reporter gene (Vihinen et al., J. Biol. Chem. 271:12532-12541 (1996)). […] These constructs were then used to transient transfect NIH3T3 cells as described supra, and CAT activity was measured.
# Effect of Various Growth Factors on Enhancer Activation in NIH3T3 Cells. […] Radioactivity was measured using a gamma counter (Wallac).
# [2] = tested on: FGF-inducible Response Element (FiRE); test: FiRE / Syn Prom CAT reporter in MCA3D keratinocytes; assay type: cell-based; settings: MCA3D mouse keratinocytes transfected with FiRE construct
# Protocol: The cells used for proximal promoter constructs were 3T3 NIH, S115 (either hormone-treated or not) and nMuMG cells. For enhancer constructs we used 3T3 NIH cells grown in 2% CMS medium and MCA 3D cells grown in Ham's medium. 3T3 NIH cells were also used to test the effect of growth factors in 2% CMS medium with 10 ng/ml FGF-2 and 2ng/ml TGFβ-1. MCA 3D cells were used to test the effect of 10 ng/ml KGF.
# FiRE is Induced Selectively by FGF-7 in Keratinocytes. The ability of FiRE to enhance transcription was tested in the mouse keratinocyte cell line MCA3D (Kuliz-Martin et al., Carcinogenesis 4:1367-1377 (1983)). MCA3D cells were transfected as described supra for mouse NIH3T3 cells. Following transfection, the cells were treated with fetal calf serum, PDGF, FGF-1, FGF-2, and FGF-7 as described supra for the NIH3T3 cells.
# syndecan-1 mRNA = test: Syndecan-1 mRNA expression in MCA3D keratinocytes; assay type: cell-based; settings: MCA3D mouse keratinocytes
# 3T3NIH cells = test: 125-IdU incorporation (DNA synthesis) assay in 3T3NIH cells; assay type: cell-based, mouse; settings: pFiRE transfected 3T3NIH cells; 10 ng/ml growth factor (2 ng/ml TGF-β) or 5% FCS
# From the text: Effect of Various Growth Factors on Enhancer Activation in NIH3T3 Cells. Plasmid pFiRE was transfected into 3T3NIH cells as described, supra. The cells were starved in DMEM medium supplemented with 5% fetal calf serum to about 70% confluence. Fetal calf serum was then replaced with 2% carboxy-methyl-Sephadex eluted fetal calf serum (CMS) 12 hrs before adding the growth factors. Various growth factors in the same medium, 5% fetal calf serum (FCS) supplemented medium or a control containing the medium, without any added growth factors were incubated with the transfected cells for 2 days, and CAT activity was measured. The effect of 10 ng/ml of FGF-2, FGF-1, FGF-4, FGF-7 (KGF), EGF, IGF1, TGFα, IFNγ, and PDGF and 2 ng/ml TGF-β were tested. The human recombinant growth factors were purchased from Peprotech (FGF-1, -2, and -7), Boehringer (FGF-2) or from Calbiochem (PDGF) TGF-β was purchased from Sigma. The effect of the added growth factors and FCS on DNA synthesis was also tested by a 125-IdU incorporation assay. This cell proliferation assay was carried out by incubating cells for 4-6 hrs with 0.25 μCi/ml 5-[^125I]iodo-2′-deoxyuridine (IdU, Amersham), washed several times with PBS and solubilized in 1 M NaOH. Radioactivity was measured using a gamma counter (Wallac).
Molecule,FiRE enhancer activation (CAT reporter activity) [1],FiRE activation [2],syndecan-1 mRNA expression (syndecan-1 mRNA),DNA synthesis / cell proliferation (125-IdU incorporation) (3T3NIH cells)
"FGF-4: growth factor, FGF family member (protein, UniProt P08620 31-206, looked up) Fibroblast growth factor 4: APTAPNGTLEAELERRWESLVALSLARLPVAAQPKEAAVQSGAGDYLLGIKRLRRLYCNVGIGFHLQALPDGRIGGAHADTRDSLLELSPVERGVVSIFGVASRFFVAMSSKGKLYGSPFFTDECTFKEILLPNNYNAYESYKYPGMFIALSKNGKTKKGNRVSPTMKVTHFLPRL",lower effect,,,
"FGF-7: Keratinocyte growth factor (FGF-7 or KGF) (protein, UniProt P21781 32-194, looked up) Fibroblast growth factor 7: CNDMTPEQMATNVNCSSPERHTRSYDYMEGGDIRVRRLFCRTQWYLRIDKRGKVKGTQEMKNNYNIMEIRTVAVGIVAIKGVESEFYLAMNKEGKLYAKKECNEDCNFKELILENHYNTYASAKWTHNGGEMFVALNQKGIPVRGKKTKKEQKTAHFLPMAIT",did not activate the enhancer; also recorded: no significant enhancer activation; also recorded: no effect,strongly activated FiRE,strongly induced,significant increase in DNA synthesis
